Experimental data as given in article PMC7246762, “Peptide Interference with APP and Tau Association: Relevance to Alzheimer’s Disease Amelioration” (International Journal of Molecular Sciences, 2020).
No end group written: not given here.

Molecular target: T1, Tau1 (19-34) peptide labelled with rhodamine (human, also: labelled with rhodamine isothiocyanate, site not given here)
T1 construct: microtubule-associated protein Tau, human, residues 19-34; also called Tau1R; source: synthetic peptide (GL Biochem Ltd.), labelled with rhodamine isothiocyanate
T1 peptide: GLGDRKDQGGYTMHQD
Experiment: far-Western, overlay or dot blot; mixtures of a fluorescein-labelled (green) and a rhodamine-labelled (red) peptide spotted on a nitrocellulose membrane; yellow colour read as binding
Settings: both partners purified

B1: APP1 (390-412) peptide labelled with fluorescein (peptide)
peptide: HFQKAKERLEAKHRERMSQVMRE
modifications: also: labelled with fluorescein isothiocyanate, site not given here
notes: amyloid precursor protein, human, residues 390-412; The discussion names the region as 389-411; also called APP1F; App1F; source: synthetic peptide (GL Biochem Ltd.), labelled with fluorescein isothiocyanate
binding result: binds
